Here are results for three molecules from patent US20250282872A1 (ANAPTYSBIO, published 2025).

The target in data set [1] is cynomolgus monkey BTLA on cells (cynomolgus monkey). The experiment in a line: flow cytometry dot plot, cynomolgus monkey lysed whole blood, CD3 (PerCP Cy5.5) against BTLA (APC), 33 nM antibody. For orientation: Flow cytometry measures light scatter and fluorescence of single cells or particles in a stream.
The target in data set [2] is T1, BTLA-ECD, purified recombinant (Example 19).
T1 sequence (Q7Z6A9 31-157, species assumed, looked up): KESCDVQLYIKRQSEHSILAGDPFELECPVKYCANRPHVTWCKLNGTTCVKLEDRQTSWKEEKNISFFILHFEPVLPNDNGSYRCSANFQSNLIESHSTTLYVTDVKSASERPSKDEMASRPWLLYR

The target in data set [3] is β-galactosidase enzyme donor (ED)-tagged human BTLA on Jurkat cells (human, UniProt Q7Z6A9 31-289). The experiment in a line: cell-based or functional assay.
The target of data set [4] is T2, cynomolgus monkey BTLA on cells (cynomolgus monkey, UniProt A0A2K5W7M7 31-289).
T2 construct: whole, on cells; also called 293c18 clone 1G5; BTLA on cynomolgus monkey peripheral blood T and B cells
T2 sequence: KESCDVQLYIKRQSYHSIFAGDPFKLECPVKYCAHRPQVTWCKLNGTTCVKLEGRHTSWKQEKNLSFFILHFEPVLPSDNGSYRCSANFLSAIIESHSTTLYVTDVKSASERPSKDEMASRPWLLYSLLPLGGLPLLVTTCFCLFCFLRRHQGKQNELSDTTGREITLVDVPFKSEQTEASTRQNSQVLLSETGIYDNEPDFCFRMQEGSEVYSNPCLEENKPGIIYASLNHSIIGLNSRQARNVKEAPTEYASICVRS
The data set is described as follows: flow cytometry on cynomolgus monkey whole blood, staining of CD20+ B cells against CD3+ T cells. How it is done: Blood was then aliquoted into wells and incubated with the indicated concentrations of 6G3-AF647 (APE13766.02), or APC-Mouse Anti-Human CD272 (BTLA) reference antibody (clone J168-540; BD Biosciences) for 30 minutes at room temperature, in the dark. Following incubation, red blood cells were lysed for 10 minutes by addition of 2.0 ml diluted BD Pharm Lyse lysing solution (BD Biosciences), samples centrifuged at 200×g for 5 minutes, washed in FACS Buffer [Dulbecco's PBS, no calcium, no magnesium (Gibco/ThermoFisher Scientific), 25 mM HEPES, pH 7.2, 0.1% BSA, 0.1% sodium azide] and fixed in 4% paraformaldehyde (200 μl/sample) for 10 minutes at room temperature. Samples were washed twice in FACS Buffer and analyzed for fluorescence on a NovoCyte Quanteon flow cytometer (ACEA Biosciences, Inc.). Data were analyzed using NovoExpress Software (ACEA Biosciences, Inc.). Mean fluorescence intensity (MFI) values were graphed and fit with nonlinear regression analyses in GraphPad Prism (GraphPad Software, Inc.). MFI values for each anti-BTLA antibody on total CD3⁺ cells are shown in FIG. 5A; MFI values for each anti-BTLA antibody on total […] are shown in FIG. 5B. […] Binding of each anti-BTLA antibody to CD3⁻ cells in FIG. 5C and FIG. 5D (green cells in the bottom quadrants of each panel) reflects the binding to CD20+ B cells. […]

“APC-Mouse Anti-Human CD272 (BTLA) reference antibody clone J168-540 (BD Biosciences)”: in data set [1], the % of cells in quadrant Q8-2 (CD3+, BTLA stain positive) stood at 35.8%; the % of cells in quadrant Q8-4 (CD3-, BTLA stain positive) amounted to 28%; the Total BTLA (% of cells stained) worked out at 63.9%.

B1: Proteinase 3 (PR3), purified recombinant (protein)
chain: IVGGHEAQPHSRPYMASLQMRGNPGSHFCGGTLIHPSFVLTAAHCLRDIPQRLVNVVLGAHNVRTQEPTQQHFSVAQVFLNNYDAENKLNDVLLIQLSSPANLSASVATVQLPQQDQPVPHGTQCLAMGWGRVGAHDPPAQVLQELNVTVVTFFCRPHNICTFVPRRKAGICFGDSGGPLICDGIIQGIDSFVIWGCATRLFPDFFTRVALYVDWIRSTLR
On to B1, for which the “proteolytic cleavage after co-incubation for up to 60 minutes (gel lanes)” value in data set [2] is “soluble BLTA-ECD was cleaved into multiple smaller fragments”.

B2: 6G3 IgG4 anti-BTLA antibody (antibody, V domains shown)
VH: QVQLVQSGAEVKKPGSSVKVSCKASGYVFSTSWMNWVRQAPGQGLEWMGRIYPGDADTNYVGKFKGRVTITADKSTTTAYMELSSLRSEDTAVYFCAKSGTFNFGNYRWYFDVWGKGTTVTVSS
VL: AIQLTQSPSSLSASVGDRVTITCRVSENIYSHLAWYQQKPGKAPKLLIYAATNLALGVPSRFSGSGSGTDYTLTISSLQPEDFATYYCQLFWGPPLTFGGGTKVEIKR
notes: Humanized, IgG4; also called APE10840; APE10840.03
For the molecule B2, in data set [3], the “SHP2 recruitment PathHunter Jurkat BTLA signaling assay with U-2 OS hFcγRIa cells, EC50” value amounted to 0.0093 µg/mL; the “SHP2 recruitment PathHunter Jurkat BTLA signaling assay, soluble antibody, EC50” value was found to be 0.125 µg/mL; the “fold change of agonist potency with against without cell-associated FcγRIa” value was about 13 fold. Also, the “MFI on B cells relative to MFI on T cells” value in data set [4] was about 9 fold.
